Read-outs that look alike come from different tables or passages of the source.
Key:
[1] = test system: HPPD polypeptides (wild-type SEQ ID NO:1 and mutants)
[2] = test system: E. coli cells expressing an HPPD polypeptide; assay: Brown color bioassay in liquid culture, residual brown color formation (BCF), OD440 after 96 hours; format: cell-based; details: for Control BCF OD440nm: brown color formation in absence of Cmpd. 1, culture supernatant after 96 hours, 5 mM HPP; for Residual BCF OD440nm [%]: brown color formation with Cmpd. 1 (1000 μM) relative to without, after 96 hours
Description: In an additional experiment, mutant HPPD polypeptides were analyzed using the principle of a colorimetric brown color assay (as, for example, described in U.S. Pat. No. 6,768,044). Bacterial cells expressing the HPPD polypeptides according to this invention were assayed in 96 well plate format (Nunc® 96 DeepWell™ plate, Sigma-Aldrich, St. Louis, USA) for HPPD polypeptides with improved HPPD inhibitor herbicide tolerance.
E. coli cells were grown in liquid LB medium (Carl Roth GmbH+Co. KG, Karlsruhe, Germany) containing the selection agent for the expression vector pSE420(RI)NX (WO2014/043435) and 5 mM para-hydroxyphenylpyruvate (HPP; Sigma-Aldrich, St. Louis, USA), in the presence of absence of the HPPD inhibitor herbicide e.g. Cmpd. 1 (1000 μM). An overnight culture of E. coli culture expressing one of the respective HPPD polypeptides according to this invention were adjusted to an OD600 of 0.3-0.5 in a final volume of 500 μL and incubated at 30 degree Celsius. Residual brown color formation was determined by measuring the brown color formation (BCF) in the presence and absence of Cmpd. […] Therefore, after 96 hours the culture was centrifuged and the supernatant of the culture was used to measure the optical density of the soluble brown pigment formation at 440 nm (OD440 nm).

[3] = kapp in presence of 50 μM Cmpd. 1, normalised to kapp without inhibitor, low substrate concentration
[4] = total change in signal in presence of 50 μM Cmpd. 1, normalised to that without inhibitor, low substrate concentration

Molecule | Residual activity ([1]; in the presence of Cmpd. 1, 15 μM inhibitor, high substrate concentration, kapp normalized to kapp without inhibitor) [%] | Residual turnover ([1]; in the presence of Cmpd. 1, 15 μM inhibitor, high substrate concentration, total change in signal normalized to no inhibitor) [%] | Residual activity ([1]; in the presence of Cmpd. 2, 15 μM inhibitor, high substrate concentration, kapp normalized to kapp without inhibitor) [%] | Residual turnover ([1]; in the presence of Cmpd. 2, 15 μM inhibitor, high substrate concentration, total change in signal normalized to no inhibitor) | Residual activity ([1]; in the presence of diketonitrile (DKN), 60 μM inhibitor, high substrate concentration, kapp normalized to kapp without inhibitor) | Residual turnover ([1]; in the presence of diketonitrile (DKN), 60 μM inhibitor, high substrate concentration, total change in signal normalized to no inhibitor) | Residual activity ([1]; in the presence of mesotrione (MST), 60 μM inhibitor, high substrate concentration, kapp normalized to kapp without inhibitor) [%] | Residual turnover ([1]; in the presence of mesotrione (MST), 60 μM inhibitor, high substrate concentration, total change in signal normalized to no inhibitor) | Control BCF OD440nm [2] | Residual BCF OD440nm [%] [2] [%] | Residual activity [1, 3] [%] | Residual turnover [1, 4] [%]
10 (protein, mutant HPPD polypeptide) MADLYENPMGLMGFEFIEFASPTPGTLEPIFEIMGFTKVATHRSKNVHLYRQGEINLILNNEPNSIASYFAAEHGPSVCGMAFRVKDSQKAYNRALELGAQPIHIDTGPMELNLPAIKGIGGAPLYLIDRFGEGSSIYDIDFVYLEGVERNPVGAGLKVIDHLTHNVYRGRMVYWANFYEKLFNFREARYFDIKGEYTGLTSKAMSAPDGMIRIPLNEESSKGAGQIEEFLMQFNGEGIQHVAFLTDDLVKTWDALKKIGMRFMTAPPDTYYEMLEGRLPDHGEPVDQLQARGILLDGSSVEGDKRLLLQIFSETLMGPVFFEFIQRKGDDGFGPDSFKVLFESVERDQVRRGVLTAD | 41 | 66 | 89 | n.i. | n.i. (no inhibition was observed under the given conditions) | n.i. | 82 | n.i. | 1.09 | 65 | – | –
87 (protein, mutant HPPD polypeptide) MADLYENPMGLMGFEFIEFASPTPGTLEPIFEIMGFTKVATHRSKNVHLYRQGEINLILNNEPNSIASYFAAEHGPSVCGMAFRVKDSQKAYNRALELGAQPIHIDTGPMELNLPAIKGIGGAPLYLIDRFGEGSSIYDIDFVYLEGVERNPVGAGLKVIDHLTHNVYRGRMVYWANFYEKLFNFREARYFDIKGEYTGLTSKAMSAPDGMIRIPLNEESSKGAGQIEEFLMQFNGEGIQHVAFLTDDLVKTWDALKKIGMRFMTAPGDEYYEMLEGRLPDHGEPVDQLQARGILLDGSSVEGDKRLLLQIFSETLMGPVFFEFIQRKGDDGFGPDSFKVLFESAERDQVRRGVLTAD | – | – | – | – | – | – | – | – | 1.91 | 68 | 17 | 53
39 (protein, mutant HPPD polypeptide) MADLYENPMGLMGFEFIEFASPTPGTLEPIFEIMGFTKVATHRSKNVHLYRQGEINLILNNEPNSIASYFAAEHGPSVCGMAFRVKDSQKAYNRALELGAQPIHIDTGPMELNLPAIKGIGGAPLYLIDRFGEGSSIYDIDFVYLEGVERNPVGAGLKVIDHLTHNVYRGRMVYWANFYEKLFNFREARYFDIKGEYTGLTSKLMSAPDGMIRIPLNEESSKGAGQIEEFLMQFNGEGIQHVAFLTDDLVKTWDALKKIGMRFMTAPGDEYYEMLEGRLPDHGEPVDQLQARGILLDGSSVEGDKRLLLQIFSETLMGPVFFEFIQRKGDDGFGPDSFKVLFESVERDQVRRGVLTAD | – | – | – | – | – | – | – | – | 1.63 | 55 | 34 | 61
89 (protein, mutant HPPD polypeptide) MADLYENPMGLMGFEFIEFASPTPGTLEPIFEIMGFTKVATHRSKNVHLYRQGEINLILNNEPNSIASYFAAEHGPSVCGMAFRVKDSQKAYNRALELGAQPIHIDTGPMELNLPAIKGIGGAPLYLIDRFGEGSSIYDIDFVYLEGVERNPVGAGLKVIDHLTHNVYRGRMVYWANFYEKLFNFREARYFDIKGEYTGLTSKAMSAPDGMIRIPLNEESSKGAGQIEEFLMQFNGEGIQHVAFLTDDLVKTWDALKKIGMRFMTAPGDEYYEMLEGRLPDHGEPVDQLQARGILLDGSSVEGDKRLLLQIFSETLMGPVFFEFIQRKGDDGFGPDSFKVLFESKERDQVRRGVLTAD | – | – | – | – | – | – | – | – | 2.36 | 67 | 23 | 43
92 (protein, mutant HPPD polypeptide) MADLYENPMGLMGFEFIEFASPTPGTLEPIFEIMGFTKVATHRSKNVHLYRQGEINLILNNEPNSIASYFAAEHGPSVCGMAFRVKDSQKAYNRALELGAQPIHIDTGPMELNLPAIKGIGGAPLYLIDRFGEGSSIYDIDFVYLEGVERNPVGAGLKVIDHLTHNVYRGRMVYWANFYEKLFNFREARYFDIKGEYTGLTSKAMSAPDGMIRIPLNEESSKGAGQIEEFLMQFNGEGIQHVAFLTDDLVKTWDALKKIGMRFRTAPGDEYYEMLEGRLPDHGEPVDQLQARGILLDGSSVEGDKRLLLQIFSETLMGPVFFEFIQRKGHDGFGPDSFKVLFESAERDQVRRGVLTAD | – | – | – | – | – | – | – | – | 1.38 | 59 | 61 | 81
86 (protein, mutant HPPD polypeptide) MADLYENPMGLMGFEFIEFASPTPGTLEPIFEIMGFTKVATHRSKNVHLYRQGEINLILNNEPNSIASYFAAEHGPSVCGMAFRVKDSQKAYNRALELGAQPIHIDTGPMELNLPAIKGIGGAPLYLIDRFGEGSSIYDIDFVYLEGVERNPVGAGLKVIDHLTHNVYRGRMVYWANFYEKLFNFREARYFDIKGEYTGLTSKAMSAPDGMIRIPLNEESSKGAGQIEEFLMQFNGEGIQHVAFLTDDLVKTWDALKKIGMRFMTAPGDEYYEMLEGRLPDHGEPVDQLQARGILLDGSSVEGDKRLLLQIFSETLMGPVFFEFIQRKGDDGFGPDSFKQLFESVERDQVRRGVLTAD | – | – | – | – | – | – | – | – | 1.94 | 74 | 23 | 45
88 (protein, mutant HPPD polypeptide) MADLYENPMGLMGFEFIEFASPTPGTLEPIFEIMGFTKVATHRSKNVHLYRQGEINLILNNEPNSIASYFAAEHGPSVCGMAFRVKDSQKAYNRALELGAQPIHIDTGPMELNLPAIKGIGGAPLYLIDRFGEGSSIYDIDFVYLEGVERNPVGAGLKVIDHLTHNVYRGRMVYWANFYEKLFNFREARYFDIKGEYTGLTSKAMSAPDGMIRIPLNEESSKGAGQIEEFLMQFNGEGIQHVAFLTDDLVKTWDALKKIGMRFMTAPGDEYYEMLEGRLPDHGEPVDQLQARGILLDGSSVEGDKRLLLQIFSETLMGPVFFEFIQRKGDDGFGPDSFKVLFESIERDQVRRGVLTAD | – | – | – | – | – | – | – | – | 2.21 | 77 | 20 | 44
59 (protein, mutant HPPD polypeptide) MADLYENPMGLMGFEFIEFASPTPGTLEPIFEIMGFTKVATHRSKNVHLYRQGEINLILNNEPNSIASYFAAEHGPSVCGMAFRVKDSQKAYNRALELGAQPIHIDTGPMELNLPAIKGIGGAPLYLIDRFGEGSSIYDIDFVYLEGVERNPVGAGLKVIDHLTHNVYRGRMVYWANFYEKLFNFREARYFDIKGEYTGLTSKAMSAPDGMIRIPLNEESSKGAGQIEEFLMQFNGEGIQHVAFLTDDLVKTWDALKKIGMRFMTAPGDEYYEMLEGRLPDHGEPVDQLQARGILLDGSSVEGDKRLLLQIFSETLMGPVFFEFIQRKGDDGFGPDSFKVLFERVERDQVRRGVLTAD | – | – | – | – | – | – | – | – | 1.29 | 51 | 19 | 46

Source: patent publication US10597674B2, “HPPD variants and methods of use” (BASF Agricultural Solutions Seed, US LLC, priority 2015, dated 2020)
